The experiment concerns the target GST-hAKT2 (human, UniProt P31751 1-481). Kind of experiment: pull-down.

Chain of GST-hAKT2 (P31751 whole entry): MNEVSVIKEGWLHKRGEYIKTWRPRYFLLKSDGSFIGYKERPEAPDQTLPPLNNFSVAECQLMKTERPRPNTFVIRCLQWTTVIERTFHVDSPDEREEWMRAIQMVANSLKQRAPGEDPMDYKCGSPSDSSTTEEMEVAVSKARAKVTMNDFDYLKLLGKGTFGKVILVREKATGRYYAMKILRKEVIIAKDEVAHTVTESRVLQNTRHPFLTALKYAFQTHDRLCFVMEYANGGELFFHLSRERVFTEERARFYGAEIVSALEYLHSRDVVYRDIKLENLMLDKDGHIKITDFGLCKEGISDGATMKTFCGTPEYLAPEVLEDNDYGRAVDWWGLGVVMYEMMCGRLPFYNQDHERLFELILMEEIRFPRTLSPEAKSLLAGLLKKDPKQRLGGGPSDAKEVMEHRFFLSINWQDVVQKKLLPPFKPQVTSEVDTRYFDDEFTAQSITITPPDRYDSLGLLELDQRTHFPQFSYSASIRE

B1: 6*His-hIRF3 (natural protein)
chain: MGTPKPRILPWLVSQLDLGQLEGVAWVNKSRTRFRIPWKHGLRQDAQQEDFGIFQAWAEATGAYVPGRDKPDLPTWKRNFRSALNRKEGLRLAEDRSKDPHDPHKIYEFVNSGVGDFSQPDTSPDTNGGGSTSDTQEDILDELLGNMVLAPLPDPGPPSLAVAPEPCPQPLRSPSLDNPTPFPNLGPSENPLKRLLVPGEEWEFEVTAFYRGRQVFQQTISCPEGLRLVGSEVGDRTLPGWPVTLPDPGMSLTDRGVMSYVRHVLSCLGGGLALWRAGQWLWAQRLGHCHTYWAVSEELLPNSGHGPDGEVPKDKEGGVFDLGPFIVDLITFTEGSGRSPRYALWFCVGESWPQDQPWTKRLVMVKVVPTCLRALVEMARVGGASSLENTVDLHISNSHPLSLTSDQYKAYLQDLVEGMDFQGPGES
As for B1, the binding result is “binds”.

(Values after article PMC8922272 (The EMBO Journal, 2022).)
